{"source": "patent US12122830", "about": "(ABL BIO, dated 2024)", "key": {"[1]": {"target": "T1, recombinant mouse ROR1 protein (Acrobiosystems, RO1-M5221) (mouse, UniProt Q9Z139 30-406)", "T1 construct": "extracellular domain; Bought; also called mouse ROR1 antigen", "T1 sequence (Q9Z139 30-406)": "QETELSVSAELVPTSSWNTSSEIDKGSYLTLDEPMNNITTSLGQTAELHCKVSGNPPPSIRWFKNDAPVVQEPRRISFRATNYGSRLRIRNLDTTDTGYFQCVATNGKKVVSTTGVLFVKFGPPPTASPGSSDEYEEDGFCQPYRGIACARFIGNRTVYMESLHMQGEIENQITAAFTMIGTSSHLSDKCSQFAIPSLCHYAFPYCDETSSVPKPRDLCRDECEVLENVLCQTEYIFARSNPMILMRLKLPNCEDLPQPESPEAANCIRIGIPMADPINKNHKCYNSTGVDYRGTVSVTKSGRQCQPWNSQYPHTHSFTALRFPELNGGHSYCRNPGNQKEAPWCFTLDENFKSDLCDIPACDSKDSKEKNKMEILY", "assay": "ELISA, recombinant mouse ROR1 protein coated at 1 µg/ml, IgG titrated, HRP anti-Fab detection", "experimental": "The anti-ROR1 antibody-antigen binding affinity was estimated by using an ELISA-based solution binding test. Specifically, a 96-well microtiter plate (Nunc-Immuno Plates, NUNC) was coated with the ROR1 protein at a concentration of 1 µg/ml in a PBS solution as described below at 4° C. for 16 hours, and non-specific binding sites were blocked with 3% BSA (bovine serum albumin) for 2 hours. For this, as the ROR1 protein, in case of human ROR1, ROR1-Fc of Example 1 or recombinant ROR1-His (Sino Biological, 13968-H08H) was used. The ROR1-His used for ELISA was a protein of sino biological company (13968-H08H) as described in the above sentence, and ROR1-His of Example 1 or recombinant mouse ROR1 protein was used (Acrobiosystems, RO1-M5221-100 µg).\nThen, after adding the anti-ROR1 antibody prepared in Example 3 at the concentration described in FIG. 2 into the microtiter plate on a 96-well microtiter plate, the binding capacity was analyzed with ELISA as follows. Specifically, after constant temperature treatment for 2 hours, the plate was washed with PBS comprising 0.05% tween 20 5 times, and then a HRP-conjugated Fab multiclonal antibody reagent (Pierce, 31414) was diluted at 1:10,000 ratio, and was put into the washed microtiter plate, and it was incubated at 37° C. for 1 hour, and the ROR1 antibody bound to the plate was detected. After reaction, it was color-developed by using TMB (Tetramethylbenzidine, Sigma, T0440). The enzymatic reaction was stopped by 0.5 mol/L of sulfuric acid, and the absorbances at 450 nm and 650 nm were measured by using a micro plate reader device (molecular device) (450 nm-650 nm)."}, "[2]": {"target": "T2, human ROR1 expressed on the cell surface (human, UniProt Q01973 30-937)", "T2 construct": "whole, on cells; On JeKo-1 and Mino cells and other cancer cell lines (endogenous) and on transfected CHO and MC38 cells; also called cell surface-expressed ROR1; CHO-human ROR1", "T2 sequence (Q01973 30-937)": "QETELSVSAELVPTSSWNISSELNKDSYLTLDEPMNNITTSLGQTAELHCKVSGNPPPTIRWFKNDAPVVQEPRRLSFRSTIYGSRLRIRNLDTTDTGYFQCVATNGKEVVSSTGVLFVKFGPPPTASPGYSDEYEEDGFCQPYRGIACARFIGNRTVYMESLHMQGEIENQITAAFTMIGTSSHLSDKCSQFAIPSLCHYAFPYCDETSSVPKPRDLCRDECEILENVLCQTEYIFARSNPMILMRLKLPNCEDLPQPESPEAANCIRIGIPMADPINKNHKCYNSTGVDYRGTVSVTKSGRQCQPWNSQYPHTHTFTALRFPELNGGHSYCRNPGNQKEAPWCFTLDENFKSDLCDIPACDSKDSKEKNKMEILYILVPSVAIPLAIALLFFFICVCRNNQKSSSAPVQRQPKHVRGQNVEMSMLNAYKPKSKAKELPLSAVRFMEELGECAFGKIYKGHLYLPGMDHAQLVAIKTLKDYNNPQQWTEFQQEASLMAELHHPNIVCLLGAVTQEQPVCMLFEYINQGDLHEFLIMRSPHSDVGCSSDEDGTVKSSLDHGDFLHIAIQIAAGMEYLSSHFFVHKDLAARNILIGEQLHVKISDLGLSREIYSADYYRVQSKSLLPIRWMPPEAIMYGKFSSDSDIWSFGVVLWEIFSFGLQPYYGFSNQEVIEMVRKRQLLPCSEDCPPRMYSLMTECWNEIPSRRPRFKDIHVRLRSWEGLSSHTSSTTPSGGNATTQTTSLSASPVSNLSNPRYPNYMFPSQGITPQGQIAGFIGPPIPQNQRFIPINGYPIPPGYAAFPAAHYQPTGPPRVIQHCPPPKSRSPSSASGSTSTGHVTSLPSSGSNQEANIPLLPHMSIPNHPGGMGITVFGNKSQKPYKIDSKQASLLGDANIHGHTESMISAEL", "assay": "flow cytometry on H460 cells (lung cancer), C2E3 IgG at 10 µg/mL, MFI of anti-ROR1 / MFI of 2nd Ab", "experimental": "(§1) For the cell lines, the binding to ROR1 was analyzed with FACS (FACSCalibur, BD Biosciences) by using the anti-ROR1 antibody of the present invention.\n(§2) Specifically, after disassociating each cell line and washing in PBS, the number of cells was counted and set as 2 ×10^5 cells/200 µl PBS, and then the clone C2E3 among ROR1 monoclonal antibodies prepared in Example 3 was treated in 10 µg/mL, and it was reacted at 4° C. for 1 hour. After reaction, cells were washed in PBS, and then the FITC-labeled constant region (Fc)-specific antibody (Goat anti-human IgG FITC conjugate, Fc specific, Sigma, F9512, concentration: 2.0 mg/ml) was suspended in 2 µl/1 ×10^5 cells/200 µl PBS, and it was reacted at 4° C. for 1 hour. After reaction, cells were washed in PBS, it was analyzed using a FACSCalibur device. The negative control group was treated only with the FITC-labeled constant region (Fc)-specific antibody. To compare the expression degrees of ROR1 among the cancer cell lines, the value of the result for the peak shift in the experimental group treated with the ROR1 monoclonal antibody (C2E3) of the present invention was divided by the result for the peak shift in the control group (Mean Fluorescence Intensity Ratio MFI Ratio: MFI of anti-ROR1/MFI of 2nd Ab)."}, "[3]": {"target": "T2, human ROR1 expressed on the cell surface", "assay": "flow cytometry on Calu-6 cells (lung cancer), C2E3 IgG at 10 µg/mL, MFI of anti-ROR1 / MFI of 2nd Ab", "experimental": "as §1, §2"}, "[4]": {"target": "T2, human ROR1 expressed on the cell surface", "assay": "flow cytometry on HCC1937 cells (breast cancer), C2E3 IgG at 10 µg/mL, MFI of anti-ROR1 / MFI of 2nd Ab", "experimental": "as §1, §2"}, "[5]": {"target": "T2, human ROR1 expressed on the cell surface", "assay": "flow cytometry on MKN-28 cells (gastric cancer), C2E3 IgG at 10 µg/mL, MFI of anti-ROR1 / MFI of 2nd Ab", "experimental": "as §1, §2"}, "[6]": {"target": "T3, mouse ROR1 expressed on the cell surface (CHO-mouse ROR1) (mouse, UniProt Q9Z139 30-937)", "T3 construct": "whole, on cells; Temporarily transfected CHO cells", "T3 sequence (Q9Z139 30-937)": "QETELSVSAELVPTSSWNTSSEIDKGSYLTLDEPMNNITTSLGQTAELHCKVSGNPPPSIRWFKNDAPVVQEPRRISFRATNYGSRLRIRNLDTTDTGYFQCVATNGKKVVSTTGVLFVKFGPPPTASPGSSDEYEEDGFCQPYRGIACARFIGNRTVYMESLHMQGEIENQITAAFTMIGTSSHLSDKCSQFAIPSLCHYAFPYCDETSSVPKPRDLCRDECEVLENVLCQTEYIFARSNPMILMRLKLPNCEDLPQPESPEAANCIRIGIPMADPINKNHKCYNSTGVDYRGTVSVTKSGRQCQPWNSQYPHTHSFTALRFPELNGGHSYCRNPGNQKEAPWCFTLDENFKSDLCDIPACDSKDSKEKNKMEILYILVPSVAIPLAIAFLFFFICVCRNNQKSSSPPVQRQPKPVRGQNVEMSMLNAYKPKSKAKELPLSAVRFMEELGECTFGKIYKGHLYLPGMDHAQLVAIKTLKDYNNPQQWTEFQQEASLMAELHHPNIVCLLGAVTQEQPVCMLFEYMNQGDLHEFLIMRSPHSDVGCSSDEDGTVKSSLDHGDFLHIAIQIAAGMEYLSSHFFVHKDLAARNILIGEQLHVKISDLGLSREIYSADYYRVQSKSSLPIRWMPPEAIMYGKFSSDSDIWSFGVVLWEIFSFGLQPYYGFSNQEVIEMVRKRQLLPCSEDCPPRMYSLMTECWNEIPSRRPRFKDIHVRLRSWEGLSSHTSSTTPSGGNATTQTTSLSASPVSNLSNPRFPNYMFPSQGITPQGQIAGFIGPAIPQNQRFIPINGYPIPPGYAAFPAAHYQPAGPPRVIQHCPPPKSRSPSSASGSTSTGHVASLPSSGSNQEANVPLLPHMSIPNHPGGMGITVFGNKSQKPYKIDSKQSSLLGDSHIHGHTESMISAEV", "assay": "flow cytometry on CHO cells transiently overexpressing mouse ROR1, FITC anti-human Fc detection, MFI ratio to 2nd Ab", "experimental": "For this experiment, the degree of binding of the anti-ROR1 antibody and ROR1 was measured by using FACSCalibur (BD Biosciences) device with the cell lines as follows, the cell lines artificially overexpressing the ROR1 protein by transfecting an ROR1 gene temporarily (CHO-human ROR1, CHO-human ROR2, CHO-mouse ROR1) or stably (MC38-human ROR1) (FIG. 5 and FIG. 7, respectively) or the cell lines expressing ROR1 (JeKo-1, Mino) (FIG. 6) or a cell line not expressing ROR1 (MCF7) (FIG. 6). […] JeKo-1, Mino, CHO-human ROR1, CHO-mouse ROR1 and MC38-human ROR1 are all cell lines expressing human ROR1 or mouse ROR1.\nSpecifically, after disassociating each cell line and washing in PBS, the number of cells was counted and set as 2×10^5 cells/200 µl PBS, and then each ROR1 monoclonal antibody in Example 3 was prepared in 10 µg/mL or as 5 fold-diluted from 10 µg/mL, and was reacted at 4° C. for 1 hour. After reaction, cells were washed in PBS and then the FITC-labeled constant region (Fc)-specific antibody (Goat anti-human IgG FITC conjugate, Fc specific, Sigma, F9512, concentration: 2.0 mg/ml) was suspended in 2 µl/1×10^5 cells/200 µl PBS, and it was reacted at 4° C. for 1 hours. The confirmation of expression degree of human ROR1, human ROR2 and mouse ROR1 that were temporarily overexpressed was analyzed by using a commercially available antibody for FACS analysis (anti-ROR1: R&D Systems, FAB2000G, anti-ROR2: R&D, FAB20641P). After reaction, cells were washed in PBS and decoded by using a FACSCalibur device. The negative control group (2nd Ab) was treated only with the FITC-labeled constant region (Fc)-specific antibody. The result for the peak shift in the experimental group treated with each ROR1 monoclonal antibody was compared to the result for the shift in the control group (Mean Fluorescence Intensity Ratio, MFI Ratio: MFI of anti-ROR1/MFI of 2nd Ab)."}}, "data": [{"binder": "C2E3 anti-ROR1 IgG antibody (antibody, V domains shown) VH: EVQLLESGGGLVQPGGSLRLSCAASGFTFSNYAMSWVRQAPGKGLEWVSSISHNSGSTYYADSVKGRFTISRDNSKNTLYLQMNSLRAEDTAVYYCAKFISARKSLGRSYSNGMDVWGQGTLVTVSS VL: QSVLTQPPSASGTPGQRVTISCTGSSSNIGSNDVTWYQQLPGTAPKLLIYADSKRPSGVPDRFSGSKSGTSASLAISGLRSEDEADYYCGTWDYSLSGYVFGGGTKLTVLG", "values": [{"measurement": "binding result", "setting": "[1]", "result": "binds"}, {"measurement": "Mean Fold Ratio", "setting": "[2]", "result": 10.9}, {"measurement": "Mean Fold Ratio", "setting": "[3]", "result": 3.3}, {"measurement": "Mean Fold Ratio", "setting": "[4]", "result": 2.7}, {"measurement": "Mean Fold Ratio", "setting": "[5]", "result": 4.9}, {"measurement": "binding result", "setting": "[6]", "result": "binds"}]}]}
